Measured values: US20140275490A1 (Astellas, published 2014)
Substitutions are numbered along the chain they refer to.

B1: 25-3 (chimeric) (antibody, V domains shown)
VH: QVQLQESGPGQVKPSQTLSLTCSVSGGSIDSGDHYWTWIRQHPGEVLEWIGYIYSSGHTYYSPSLKSRLTMSLDTSKNQFSLRLSSVTAADTAVYYCARVGDYEWFDTWGQGTLVTVSS
VL: DIVMTQSPDSLAVSLGERATINCKSSQTILYPSNNMNYLGWYQQRAGQSPRLLIYWASTRESGVPDRFSGSGSGTDFTLTISSLQAEDVAVYYCQQYYSSLPTFGQGTKVEIKR
B2: 30-15 (chimeric) (antibody, V domains shown)
VH: QVQLVQSGAEVKKPGASMKVSCKVSGYTLNELSIHWVRQAPGKGLEWMGGFDPEHGETVYAQNFQDRVTLTEDTSTDTSYMGLNNLRSDDTAVYYCAAESYGDYEFWGQGTLVTVSS
VL: DIQMTQSPSSVSASVGDRVTITCRASQGINNWLAWYQQKPGKAPKVLIYTASSLQSGVPSRFSGSGSGTDFTLTISSLQPEDFATYYCQQANSHPWTFGQGTKVEIKR
B3: 30-16 (chimeric) (antibody, V domains shown)
VH: QVQVVQSGAEVKKPGASVKVSCKVSGYTLIELAIHWVRQVPGKGLEWMGGFDPEHGETIYAQKFQGRVTMTEDTSTDTAYMELNNLRSEDTAVYYCAILEAGDLDCWGQGTLVTVSS
VL: B2 VL with N30S, I75V, S77G, A84G, H94F, W96F, Q100P, E105D
B4: 32-28 (chimeric) (antibody, V domains shown)
VH: QVHLVQSGTEVRKPGASVKVSCKVSGYTLNELAIHWVRQAPGKGLEWMGGFDPEHGEIIYAQRFQGRVTLPEDTSTDTAYLDLFNLRSEDTAVYFCATEAAPFDYWGQGTLVIVSS
VL: DIQMTQSPSTLSASVGDRVTITCRASQSLSSWLAWYQQKPGKAPKLLIYKASSLESGVPSRFSGSGSGTDFTLTISSLQPDDFATYYCQQYDIYPRTFGQGTKVEIKR
B5: 34-58 (chimeric) (antibody, V domains shown)
VH: B4 VH with V68I, L81M, F84V, A97T, T110S
VL: B4 VL with S31N, S77G
B6: 32-36 (chimeric) (antibody, V domains shown)
VH: QVQMVQSGAEVKRPGASVKVSCKVSGYTLNELGIHWVRQAPGKGLEWMGGFDPEHGKIIYAQRFQGRLTMPEDTSTDTAYMELSSLTSEDTAVYYCATVAAPLDYWGQGTLVTVSS
VL: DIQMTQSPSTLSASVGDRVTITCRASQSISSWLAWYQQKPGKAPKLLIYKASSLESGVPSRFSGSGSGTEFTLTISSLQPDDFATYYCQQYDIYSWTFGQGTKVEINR
B7: fully human antibody 25-3 (antibody, human IgG1, kappa, V domains shown)
VH: B1 VH
VL: B1 VL
notes: Human Ig gamma1 / human kappa constant regions; also called 25-3 (fully human); fully human 25-3 antibody
B8: fully human antibody 30-15 (antibody, human IgG1, kappa, V domains shown)
VH: B2 VH
VL: B2 VL
notes: Human Ig gamma1 / human kappa constant regions; also called 30-15 (fully human); fully human 30-15 antibody
B9: fully human antibody 30-18 (antibody, human IgG1, kappa, V domains shown)
VH: B2 VH with M18V, G56S, V59L, V68L, D77E, S79A, Y80C, G82E, N85S
VL: B2 VL with G28D, N30S, N31S
notes: Human Ig gamma1 / human kappa constant regions; also called 30-18 (fully human); fully human 30-18 antibody
B10: fully human antibody 30-16 (antibody, human IgG1, kappa, V domains shown)
VH: B3 VH
VL: B2 VL with N30S, I75V, S77G, A84G, H94F, W96F, Q100P, E105D
notes: Human Ig gamma1 / human kappa constant regions; also called 30-16 (fully human); fully human 30-16 antibody
B11: fully human antibody 32-28 (antibody, human IgG1, kappa, V domains shown)
VH: B4 VH
VL: B4 VL
notes: Human Ig gamma1 / human kappa constant regions; also called 32-28 (fully human); fully human 32-28 antibody
B12: fully human antibody 34-58 (antibody, human IgG1, kappa, V domains shown)
VH: B4 VH with V68I, L81M, F84V, A97T, T110S
VL: B4 VL with S31N, S77G
notes: Human Ig gamma1 / human kappa constant regions; also called 34-58 (fully human); fully human 34-58 antibody
B13: fully human antibody 32-36 (antibody, human IgG1, kappa, V domains shown)
VH: B6 VH
VL: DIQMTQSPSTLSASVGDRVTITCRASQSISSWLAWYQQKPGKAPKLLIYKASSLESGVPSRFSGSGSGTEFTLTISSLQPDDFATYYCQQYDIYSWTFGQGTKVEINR
notes: Human Ig gamma1 / human kappa constant regions; also called 32-36 (fully human); fully human 32-36 antibody

molecular target: T1, monkey IL-23R-mouse Fc fusion protein (monkey; mouse); assay: antigen ELISA, monkey IL-23R-Fc immobilized, HRP anti-mouse Ig, chemiluminescence
T1 construct: extracellular domain; also called monkey IL-23R-Fc fusion protein
Experimental: (§1) The present inventors used an antigen ELISA to measure the antigen-specific binding activity of the antibody. The human or monkey IL-23R-Fc fusion protein was immobilized onto a Maxisorp 384-well plate (Nunc, Inc.) at a concentration of 500 ng/mL. A blocking agent (Blocking One; Nacalai Tesque, Inc.) was added thereto and allowed to stand at room temperature for 1 hour, followed by washing twice with a wash buffer [TPBS: a phosphate buffered saline (PBS) containing 0.05% Tween-20], and the purified antibody samples were suitably serially diluted and added thereto. Incubation was performed at room temperature for 1 hour, followed by washing four times with TPBS, and HRP-rabbit anti-mouse Ig antibody (DAKO) which was 2000-fold diluted with a dilution buffer was added. Incubation was performed at room temperature for 1 hour, followed by washing four times with a wash buffer. A BM-chemiluminescence ELISA substrate (POD) (Roche Diagnostics), which is a reagent for detecting chemical luminescence, was added, and the amount of chemiluminescence was measured with an EnVision counter (Perkin Elmer). Each antibody was tested in duplicate and the EC50 was analyzed by curve fitting. In this test, a fusion antibody obtained by replacing the Fc region of the known humanized anti-human IL-23R antibody hum20D7 (patent document 1) with the mouse Fc region (hereinafter referred to as hum20D7-mFc) was used as a comparative antibody. Also, the reason why the hum20D7 was fused with the mouse Fc region to prepare a fusion protein was to use anti-mouse Ig antibody as secondary antibody, and the mouse Fc region could be recognized by the anti-mouse Ig antibody, thereby rendering it possible to measure activity.

| Binder | EC50 |
| --- | --- |
| B1 | 0.028 µg/mL |
| B2 | 0.016 µg/mL |
| B3 | 0.069 µg/mL |
| B4 | 0.024 µg/mL |
| B5 | 0.013 µg/mL |
| B6 | 0.028 µg/mL |

molecular target: T2, human IL-23R (human, UniProt Q5VWK5 24-629); assay: cell-based or functional assay
T2 sequence: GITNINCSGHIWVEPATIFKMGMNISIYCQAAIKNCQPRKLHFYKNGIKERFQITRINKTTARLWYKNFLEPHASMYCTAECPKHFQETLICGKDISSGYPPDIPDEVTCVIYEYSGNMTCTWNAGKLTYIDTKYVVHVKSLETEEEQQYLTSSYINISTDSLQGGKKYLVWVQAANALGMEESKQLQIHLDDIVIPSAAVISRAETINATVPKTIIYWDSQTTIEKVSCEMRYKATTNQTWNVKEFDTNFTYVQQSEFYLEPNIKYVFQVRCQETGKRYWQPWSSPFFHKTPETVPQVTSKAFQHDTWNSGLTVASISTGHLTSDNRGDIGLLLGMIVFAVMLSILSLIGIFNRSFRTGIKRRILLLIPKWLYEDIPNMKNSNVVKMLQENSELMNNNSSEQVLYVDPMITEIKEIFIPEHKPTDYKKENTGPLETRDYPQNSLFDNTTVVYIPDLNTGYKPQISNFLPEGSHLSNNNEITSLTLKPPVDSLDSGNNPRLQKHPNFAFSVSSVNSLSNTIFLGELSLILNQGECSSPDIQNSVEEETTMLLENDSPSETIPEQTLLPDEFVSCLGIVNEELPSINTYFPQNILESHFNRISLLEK

| Binder | IC50, inhibition of human IL-23-inducible Kit-225 cell proliferation |
| --- | --- |
| B7 | 0.0035 µg/mL |
| B8 | 0.0014 µg/mL |
| B9 | 0.0033 µg/mL |
| B10 | 0.0023 µg/mL |
| B11 | 0.0014 µg/mL |
| B12 | 0.0037 µg/mL |
| B13 | 0.0067 µg/mL |

molecular target: T2, human IL-23R; assay: cell-based or functional assay; remark: another data set of the same source

| Binder | IC50, IL-23-stimulated STAT3 phosphorylation in CD4 lymphocytes of human whole blood |
| --- | --- |
| B7 | 0.0007 µg/mL |
| B8 | 0.013 µg/mL |
| B10 | 0.0045 µg/mL |
| B11 | 0.00016 µg/mL |
| B12 | 0.00051 µg/mL |
| B13 | 0.0082 µg/mL |

molecular target: T3, human IL-23R-mouse Fc fusion protein (human; mouse, UniProt Q5VWK5 24-353); assay: antigen ELISA, human IL-23R-Fc immobilized, HRP anti-human IgG, chemiluminescence
T3 construct: Expressed in FreeStyle 293 cells, purified; immobilized on the ELISA plate at 500 ng/mL; also called human IL-23R-Fc fusion protein; not shown: Fc region of mouse immunoglobulin (IgG2a) as encoded by the vector pFUSE-mIgG2A-Fc2 (InvivoGen); limits and any linker r
T3 sequence: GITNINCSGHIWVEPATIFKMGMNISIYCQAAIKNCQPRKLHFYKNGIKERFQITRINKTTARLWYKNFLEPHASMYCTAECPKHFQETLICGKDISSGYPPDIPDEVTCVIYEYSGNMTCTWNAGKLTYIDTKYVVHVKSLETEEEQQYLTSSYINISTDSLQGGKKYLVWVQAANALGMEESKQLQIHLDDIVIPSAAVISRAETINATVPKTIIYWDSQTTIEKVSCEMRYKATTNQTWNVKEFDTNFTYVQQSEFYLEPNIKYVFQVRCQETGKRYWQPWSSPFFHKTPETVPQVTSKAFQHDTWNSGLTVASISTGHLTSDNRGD
Experimental: (§2) The present inventors used an antigen ELISA to measure the antigen-specific binding activities of the fully human antibodies constructed in Example 6. A human or monkey IL-23R-Fc fusion protein was immobilized onto a Maxisorp 384-well plate (Nunc, Inc.) at a concentration of 500 ng/mL. A blocking agent (Blocking One; Nacalai Tesque, Inc.) was added thereto and allowed to stand at room temperature for 1 hour, followed by washing twice with a wash buffer [TPBS: 0.05% Tween-20-containing phosphate buffered saline (PBS)], and each of the purified antibody samples was suitably serially diluted and added thereto. Incubation was performed at room temperature for 1 hour, followed by washing four times with TPBS, and HRP-labeled anti-human IgG antibody (DAKO) which was 2000-fold diluted with dilution buffer was added as secondary antibody. Incubation was performed at room temperature for 1 hour, followed by washing four times with a washing buffer. A BM-chemiluminescence ELISA substrate (POD) (Roche Diagnostics) that is a reagent for detecting chemiluminescence was added thereto and the amount of chemiluminescence was measured with an EnVision counter (Perkin Elmer). Each of the antibodies was tested in duplicate, and the EC 50 was analyzed by curve fitting.

| Binder | EC50 |
| --- | --- |
| B7 | 0.0195 µg/mL |
| B8 | 0.0118 µg/mL |
| B9 | 0.0136 µg/mL |
| B10 | 0.0165 µg/mL |
| B11 | 0.0131 µg/mL |
| B12 | 0.0146 µg/mL |
| B13 | 0.0218 µg/mL |

molecular target: T1, monkey IL-23R-mouse Fc fusion protein; assay: antigen ELISA, monkey IL-23R-Fc immobilized, HRP anti-human IgG, chemiluminescence
Experimental: as §2

| Binder | EC50 |
| --- | --- |
| B7 | 0.0112 µg/mL |
| B8 | 0.0076 µg/mL |
| B9 | 0.0084 µg/mL |
| B10 | 0.0108 µg/mL |
| B11 | 0.0171 µg/mL |
| B12 | 0.0148 µg/mL |
| B13 | 0.0331 µg/mL |

molecular target: T3, human IL-23R-mouse Fc fusion protein; assay: antigen ELISA, human IL-23R-Fc immobilized, HRP anti-mouse Ig, chemiluminescence
Experimental: as §1

| Binder | EC50 |
| --- | --- |
| B1 | 0.021 µg/mL |
| B2 | 0.017 µg/mL |
| B3 | 0.019 µg/mL |
| B4 | 0.018 µg/mL |
| B5 | 0.017 µg/mL |
| B6 | 0.023 µg/mL |
